# Measurements reported in patent US20040038894A1, “Compounds for modulating cell negative regulations and biological applications thereof” (INSTITUT NATIONAL DE LA SANTE ET DE LA RECHERCHE MEDICALE …, priority 1996, published 2004).
# Where a SMILES comes first, the peptide text is derived from it. Where no end group is shown, it is not given here. [ ]: non-standard residue; d: D form. The star is where a group is joined. Biotin = O=C1N[C@H]2[C@H](CS[C@H]2CCCCC(=O)*)N1; pY = N[C@@H](Cc1ccc(OP(=O)(O)O)cc1)C(=O)O
# T1: GST-SHP-1.SH2(N + C) (Mus musculus, UniProt P29351)
# T1 construct: Using recombinant soluble tandem SH2 domains of SHP-1 and SHP-2; made in house; host or cells: E. coli DH5α
# T1 sequence (P29351 1-213 limits assumed): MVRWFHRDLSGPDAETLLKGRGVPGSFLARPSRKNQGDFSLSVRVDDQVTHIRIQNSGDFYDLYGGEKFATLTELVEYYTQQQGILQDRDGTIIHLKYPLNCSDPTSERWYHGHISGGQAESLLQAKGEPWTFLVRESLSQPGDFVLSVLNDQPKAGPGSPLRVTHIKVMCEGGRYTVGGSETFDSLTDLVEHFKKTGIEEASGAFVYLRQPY
# T2: GST-SHP-2.SH2(N + C) (Mus musculus, UniProt P35235)
# T2 construct: Using recombinant soluble tandem SH2 domains of SHP-1 and SHP-2; made in house; host or cells: E. coli DH5α
# T2 sequence (P35235 1-216 limits assumed): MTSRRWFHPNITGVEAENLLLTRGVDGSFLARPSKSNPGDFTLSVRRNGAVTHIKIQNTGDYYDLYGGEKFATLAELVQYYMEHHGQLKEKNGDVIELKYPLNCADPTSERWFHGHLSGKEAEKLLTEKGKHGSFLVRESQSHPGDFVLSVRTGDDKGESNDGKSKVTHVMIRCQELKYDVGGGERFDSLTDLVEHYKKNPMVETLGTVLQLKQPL
# T3: SHIP polyinositol phosphatase from RBL-2H3 cell lysates (rat (cell line RBL-2H3), UniProt P97573 1-1190, limits assumed)
# T3 construct: Detected by immunoblot with anti-SHIP antiserum
# T3 sequence (looked up): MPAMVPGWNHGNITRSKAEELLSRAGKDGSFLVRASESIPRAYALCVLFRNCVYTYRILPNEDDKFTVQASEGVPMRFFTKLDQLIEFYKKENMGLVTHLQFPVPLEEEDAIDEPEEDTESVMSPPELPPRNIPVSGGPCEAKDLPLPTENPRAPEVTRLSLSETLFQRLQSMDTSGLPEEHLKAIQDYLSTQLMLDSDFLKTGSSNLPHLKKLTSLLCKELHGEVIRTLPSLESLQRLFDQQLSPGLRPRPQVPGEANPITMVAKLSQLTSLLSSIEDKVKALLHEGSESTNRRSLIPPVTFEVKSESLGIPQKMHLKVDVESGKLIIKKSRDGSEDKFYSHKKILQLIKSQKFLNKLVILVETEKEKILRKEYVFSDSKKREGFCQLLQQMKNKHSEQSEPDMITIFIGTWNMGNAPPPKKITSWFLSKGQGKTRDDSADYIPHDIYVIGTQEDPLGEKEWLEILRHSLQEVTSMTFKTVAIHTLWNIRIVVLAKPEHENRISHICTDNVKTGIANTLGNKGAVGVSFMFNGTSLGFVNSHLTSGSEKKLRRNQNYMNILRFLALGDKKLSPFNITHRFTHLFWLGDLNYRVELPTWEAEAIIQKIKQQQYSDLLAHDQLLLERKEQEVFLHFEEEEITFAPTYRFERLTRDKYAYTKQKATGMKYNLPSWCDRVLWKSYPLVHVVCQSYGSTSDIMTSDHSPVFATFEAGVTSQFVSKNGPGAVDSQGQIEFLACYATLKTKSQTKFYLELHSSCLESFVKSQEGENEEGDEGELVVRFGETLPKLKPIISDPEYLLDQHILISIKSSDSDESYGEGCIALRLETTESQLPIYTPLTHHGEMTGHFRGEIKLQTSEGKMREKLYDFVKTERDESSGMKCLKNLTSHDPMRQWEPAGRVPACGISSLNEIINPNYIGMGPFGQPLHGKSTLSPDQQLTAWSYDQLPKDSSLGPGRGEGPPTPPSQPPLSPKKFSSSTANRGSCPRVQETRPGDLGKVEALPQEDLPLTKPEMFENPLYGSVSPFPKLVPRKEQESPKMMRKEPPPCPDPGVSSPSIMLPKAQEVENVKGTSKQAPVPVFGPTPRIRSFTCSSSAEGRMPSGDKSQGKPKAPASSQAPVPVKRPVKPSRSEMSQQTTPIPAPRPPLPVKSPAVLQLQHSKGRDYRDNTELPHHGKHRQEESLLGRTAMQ
# Assays:
# [1] = target: human p58.2 KIR (CD158b), HLA-Cw3-specific killer-cell inhibitory receptor (human) (UniProt P43628); assay: cell-based or functional assay
# human p58.2 KIR (CD158b), HLA-Cw3-specific killer-cell inhibitory receptor (human), sequence (P43628 22-341): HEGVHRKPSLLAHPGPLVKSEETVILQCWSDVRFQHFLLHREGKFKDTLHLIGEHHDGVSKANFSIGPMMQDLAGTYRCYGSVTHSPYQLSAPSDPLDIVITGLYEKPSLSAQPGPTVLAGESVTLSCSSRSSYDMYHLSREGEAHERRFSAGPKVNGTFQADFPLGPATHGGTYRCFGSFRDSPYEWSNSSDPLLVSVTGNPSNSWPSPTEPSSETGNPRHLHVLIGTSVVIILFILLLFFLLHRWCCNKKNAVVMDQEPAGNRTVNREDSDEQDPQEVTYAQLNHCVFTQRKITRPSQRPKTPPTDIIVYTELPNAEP
# GST-SHP-1.SH2(N + C) = target: T1, GST-SHP-1.SH2(N + C); assay: Surface plasmon resonance (BIAcore), SHP-1 tandem SH2 domains; assay type: binding, murine; details: for koff / kon: 25 RU phosphorylated peptide immobilized, 5 μl/min
# Experimental: (§1) Surface plasmon resonance measurements were performed on a BIAcore apparatus (BIAcore). The GST-SHP1.SH2(NC), GST-SHP2.SH2(NC) and GST-SHIP.SH2 fusion proteins generated from the murine phosphatase cDNAs, were purified from DH5α lysates as previously described. Before their use in BIAcore experiments, fusion proteins were dialyzed in HBS buffer pH 7.4 (10 mM HEPES, 150 mM NaCl, 3.4 mM EDTA). Protein purity was assessed by 12.5% SDS-PAGE, and Coomassie blue staining. The running buffer used in all BIAcore experiments consisted of HBS buffer supplemented with 0.05% surfactant P20. Equilibrium constant determination (koff and kon) was performed using BIAevaluation 2.0 software. The equilibrium dissociation constants KD were calculated from the koff/kon ratio.
# (§2) Results are illustrated by FIG. 16 showing the BIAcore analysis of NKG2A ITIM interaction with the SH2 domains of SHP-1, SHP-2 and SHIP phosphatases. In FIG. 16, the binding of 100 nM soluble recombinant GST-SHP-1.SH2(N+C), GST-SHP-2.SH2(N+C) or GST-SHIP.SH2 to immobilized NKG2A/B phosphorylated ITIM peptides (25 RU) was monitored by real-time analysis using surface plasmon resonance. Results are expressed as corrected resonance units (CRU) corresponding to the raw RU values after subtraction of background RU value due to the injection medium.
# (§3) The measurement of phosphorylated peptide binding to GST-SHP-1.SH2(N+C) and GST-SHP-2.SH2(N+C) fusion proteins was performed at a constant 5 μl/min flow rate. In this representative experiment, 25 RU of phosphorylated NKG2A N-term and NKG2A C-term peptides were immobilized on streptavidin microchips. The regeneration was performed using HBS buffer supplemented with 0.03% SDS. Results are expressed as corrected resonance units (CRU) corresponding to the raw RU values after subtraction of background RU value due to the injection medium, koff and kon were calculated from three independent measurements using the BIAevaluation 2.0 software. In addition, kon was calculated as the slope of the curve kg=kon×c−koff, where koff is the off-rate constant and c is the concentration of the soluble recombinant GST fusion proteins. By plotting kg as a function of c, a linear regression fit was obtained (r^2>0.98) for the binding of NKG2A ITIM N- and C-term to SHP-1 and SHP-2 tandem SH2 domains. This linear representation allows to check on the validity of the single step interaction and to confirm the determination of the kon constant using non-linear analysis (BIAevaluation software).
# GST-SHP-2.SH2(N + C) = target: T2, GST-SHP-2.SH2(N + C); assay: Surface plasmon resonance (BIAcore), SHP-2 tandem SH2 domains; assay type: binding, murine; details: for koff / kon: 25 RU phosphorylated peptide immobilized, 5 μl/min
# Experimental: as §1, §2, §3
# [2] = target: phosphorylated p58.2.2 peptide (C-terminal KIR ITIM) (human); assay: SPR (BIAcore), phosphopeptide on streptavidin chip, GST fusion injected
# phosphorylated p58.2.2 peptide (C-terminal KIR ITIM) (human), sequence (peptide, as listed by the source): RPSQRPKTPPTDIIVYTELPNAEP
# [3] = target: phosphorylated p58.2.1 peptide (N-terminal KIR ITIM) (human); assay: as above
# [4] = target: T3, SHIP polyinositol phosphatase from …; assay: cell lysate adsorption to peptide beads, immunoblot (RBL-2H3), FIG. 15A
# Experimental: In an attempt to characterize the function of these putative ITIMs, cell lysates were incubated with phosphorylated and nonphosphorylated synthetic peptides corresponding to the N-terminal and the C-terminal I/VxYxxL stretches present in NKG2A intracytoplasmic domain. Cell lysates absorbed to peptides were then assayed by immunoblotting for the presence of the phosphatases known to interact with phosphorylated ITIMs, i.e. the protein tyrosine phosphatases SHP-1 and SHP-2, as well as the polyinositol phosphate phosphatase, SHIP. In parallel, lysates adsorption were performed using control peptides corresponding to ITIMs present in Ig-like ITIM bearing receptors such as human KIRs (p58.2/CD158b, a receptor for HLA-Cw3) and mouse FcγRIIB, as well as in mouse lectin-like ITIM-bearing receptor, such as Ly-49A.
# As shown in FIG. 15A (lanes 1 and 2), both N- and C-terminal I/VxYxxL stretches present in NKG2A associate with SHP-1 and SHP-2 in vitro, but no binding to SHIP was detected. Similar patterns of association were obtained using the phosphorylated ITIM peptides of […] and p58.2 KIR (FIG. 15A, lanes 3 to 5). In contrast, FcγRIIB phosphorylated ITIM peptides also associate with SHIP (FIG. 15A, lane 6). No association of phosphatases with nonphosphorylated peptides corresponding to FcγRIIB (FIG. 15A, lane 7) and NKG2A N- and C-terminal I/VxYxxL stretches was detected. When nonphosphorylated and phosphorylated peptides were used to adsorb lysates prepared from ³⁵S methionine/cysteine-labeled cells, only two bands around 64 and 68 kDa selectively associate with both phosphorylated NKG2A N- and C-terminal I/VxYxxL stretches, as compared to nonphosphorylated ones (FIG. 15B). The 64 and 68 kDa proteins which bind to phosphorylated NKG2A peptides correspond to SHP-1 and SHP-2 apparent molecular weight respectively, supporting the immunoblotting results. Therefore, our results define the two NKG2A I/VxYxxL stretches as ITIMs which appear to function similarly to other ITIMs present in inhibitory receptors for MHC class I molecules, i.e. KIRs and Ly-49 molecules. Using recombinant soluble tandem SH2 domains of SHP-1 and SHP-2, we confirmed by surface plasmon resonance that both NKG2A ITIM phosphopeptides directly associate with the SH2 domains of SHP-1 and SHP-2, but not with the SH2 domain of SHIP (FIG. 16).
# [5] = calculated from the koff/kon ratio
Molecule,koff (GST-SHP-1.SH2(N + C)) [s⁻¹],kon (GST-SHP-1.SH2(N + C)) [M⁻¹ s⁻¹],koff (GST-SHP-2.SH2(N + C)) [s⁻¹],kon (GST-SHP-2.SH2(N + C)) [M⁻¹ s⁻¹],Kd [2] [nM],koff [2] [s⁻¹],kon [2] [M⁻¹ s⁻¹],Kd [3] [nM],koff [3] [s⁻¹],kon [3] [M⁻¹ s⁻¹],further results
GL183 F(ab')2,–,–,–,–,–,–,–,–,–,–,"inhibition of CD25/CD3 zeta-induced serotonin release, RTIIBp58 B clone (GL183 1 µg/ml, anti-hCD25 3 µg/ml) [1]: 39.3%; inhibition of CD25/CD3 zeta-induced serotonin release, clone with unusually high CD25/CD3 zeta (GL183 F(ab')2 1 µg/ml) [1]: 14.1%; inhibition of FcεRI-induced serotonin release, first RTIIBp58 clone (GL183 1 µg/ml, IgE 10^-3 dilution, GAM) [1]: 72.8%; inhibition of FcεRI-induced serotonin release, second RTIIBp58 clone (GL183 1 µg/ml, IgE 10^-3 dilution, GAM) [1]: 55.8%"
"CC[C@H](C)[C@H](NC(=O)CCCC[C@@H]1SC[C@@H]2NC(=O)N[C@@H]21)C(=O)N[C@@H](CC(C)C)C(=O)N[C@@H](C)C(=O)N[C@H](C(=O)N[C@@H](CCC(=O)O)C(=O)N[C@@H](CCC(N)=O)C(=O)N[C@@H](CCC(=O)O)C(=O)N[C@H](C(=O)N[C@H](C(=O)N[C@@H](Cc1ccc(OP(=O)(O)O)cc1)C(=O)N[C@@H](C)C(=O)N[C@@H](CCC(=O)O)C(=O)N[C@@H](CC(C)C)C(=O)N[C@@H](CC(N)=O)C(=O)N[C@@H](CC(C)C)C(=O)O)[C@@H](C)O)[C@@H](C)CC)[C@@H](C)O [NKG2-A C-terminal ITIM, ILATEQEIT40 AELNL] (HELM PEPTIDE1{[O=C1N[C@H]2[C@H](CS[C@H]2CCCCC(=O)[*:2])N1].I.L.A.T.E.Q.E.I.T.[O=C([C@H](Cc1ccc(OP(=O)(O)O)cc1)N[*:1])[*:2]].A.E.L.N.L}$$$$V2.0; N-terminus and C-terminus assumed)",0.00117,410000,0.00132,840000,–,–,–,–,–,–,–
GST-SHP-1.SH2(N) fusion protein (from UniProt P29351 1-106),–,–,–,–,3160,0.025,8000,423,0.042,100000,–
GST-SHP-1.SH2(C) fusion protein (from UniProt P29351 107-217),–,–,–,–,545,0.0003,600,137,0.0007,5000,–
"CC[C@H](C)[C@H](NC(=O)[C@@H](NC(=O)CNC(=O)[C@H](CCC(N)=O)NC(=O)[C@H](CC(N)=O)NC(=O)[C@H](CC(=O)O)NC(=O)[C@H](CCSC)NC(=O)CCCC[C@@H]1SC[C@@H]2NC(=O)N[C@@H]21)C(C)C)C(=O)N[C@@H](Cc1ccc(OP(=O)(O)O)cc1)C(=O)N[C@@H](CO)C(=O)N[C@@H](CC(=O)O)C(=O)N[C@@H](CC(C)C)C(=O)N[C@@H](CC(N)=O)C(=O)N[C@@H](CC(C)C)C(=O)O [NKG2-A N-terminal ITIM, MDNQGVIY8 SDLNL] (HELM PEPTIDE1{[O=C1N[C@H]2[C@H](CS[C@H]2CCCCC(=O)[*:2])N1].M.D.N.Q.G.V.I.[O=C([C@H](Cc1ccc(OP(=O)(O)O)cc1)N[*:1])[*:2]].S.D.L.N.L}$$$$V2.0)",0.00189,390000,0.00142,1.03e+06,–,–,–,–,–,–,Kd (GST-SHP-1.SH2(N + C); [5]): 4.8 nM; Kd (GST-SHP-2.SH2(N + C); [5]): 1.38 nM
Biotin-MSEQEVT[pY]SMVRF (also called Ly-19A) [phosphorylated Ly-49A ITIM peptide],–,–,–,–,–,–,–,–,–,–,binding result [4]: no binding
